We go through six molecules from patent US20140241984A1.

Where a chain is given by its changes, count along the chain named.

B1: Syn-O1 (antibody, IgG2b, V domains shown)
VH: EVQLVESGGGLVQPKGSLKLSCAASGFTFNTYAMHWVRQAPGKGLEWVARIRSKSSNYATYYADSVKDRFTISRDDSQSMLYLQMNNLKTEDTAMYYCVRPLKWYFDVWGTGTTVTVSS
VL: QIVLTQSPAILSASPGEKVTMTCSASSTVNYMHWYQQKSGTSPKIWIYDTSKLASGVPARFSGSGSWTSYSLTISSMEAEDAATYYCQQWNSNPPTFGAGTKLELK
B2: Syn-O3 (antibody, IgG1, V domains shown)
VH: B1 VH
VL: B1 VL
B3: Syn-O4 (antibody, IgG1, V domains shown)
VH: B1 VH
VL: B1 VL
B4: Syn-O2 (antibody, IgG1, V domains shown)
VH: B1 VH
VL: B1 VL
B5: Syn-F1 (antibody, V domains shown)
VH: DVQLVESGGDLVQPGGSRKLSCAASGFTFSSFGMHWVRQAPEKGLEWVAYINSGSSTIYYADTVKGRFTISRDNPKNTLFLQMTSLRSEDTAMYYCARGNNPGTGYYYSMDYWGQGTSVTVSS
VL: not shown
B6: Syn-F2 (antibody, IgG2a, V domains shown)
VH: B5 VH with D10G, N52S, S109A
VL: not shown

One assay concerns the target α-synuclein fibrils (human), P37840. As to the kind of experiment: inhibition ELISA; fibrils against monomers. To be noted: remark: other sources report otherwise. (In general: In an ELISA, binding on a coated surface is turned into a signal by an enzyme label.)
In turn, B1 showed a Fold Affinity to Fibrils of 12700 fold.
Same read-out and setting: as for B2, the figure is 11100 fold; as for B3, 6930 fold; as for B4, 27300 fold.
Still for that read-out and setting: the result for B5 reads 16600 fold; that for B6, 3140 fold.

For another assay the target is unchanged. As to the kind of experiment: SPR, BIAcore X100; fibrils immobilised on CM5, mAb injected at 0.01-10 nM. Conditions: remark: other sources report otherwise.
As usually defined, the Kd is a measure of binding affinity in units of concentration. The low end stands for tighter binding, the high end for weaker binding. What is called koff is a measure of how fast the partners let go of each other. A low value points to a long-lived complex. The term kon denotes the rate constant with which the complex forms. With B1, the Kd stood at 0.016 nM, the koff came to 9.36e-05 s⁻¹ and the kon was found to be 5.86e+06 M⁻¹ s⁻¹.
The corresponding values for B2 are 0.171 nM, 0.000379 s⁻¹ and 2.22e+06 M⁻¹ s⁻¹.
For B3, in that order: 0.138 nM, 0.000996 s⁻¹ and 7.24e+06 M⁻¹ s⁻¹.
For B4, in that order: 0.0969 nM, 0.00127 s⁻¹ and 1.31e+07 M⁻¹ s⁻¹.
In turn, B5 had a dissociation constant Kd of 0.127 nM, a koff of 0.00156 s⁻¹ and a kon of 1.23e+07 M⁻¹ s⁻¹.
For B6, in that order: 2.69 nM, 0.00338 s⁻¹ and 1.26e+06 M⁻¹ s⁻¹.
